Source: the supplement of paper PMC10567573
± gives the standard deviation.

Experiment: protein stability index of a GFP-peptide fusion (GPS, HEK-293T) (PSI 1-6); higher = more stable
[1] = treatment: DMSO, c terminus: native
[2] = treatment: MLN4924 1 uM, 8 h, c terminus: native
[3] = treatment: DMSO, c terminus: a fixed tail appended
[4] = treatment: MLN4924 1 uM, 8 h, c terminus: a fixed tail appended
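Also: 24-mer peptide tiles fused after GFP, lentivirally expressed, FACS-sorted into six equal bins by GFP/DsRed ratio, decoded by Illumina sequencing, PSI is the read-weighted mean bin number.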

Sequence	protein stability index [1]	protein stability index [2]	protein stability index [3]	protein stability index [4]
LAVAVPAVTSADSQFSQTTQAGS [LYSMD4]	3.91 ± 0.64	3.96 ± 0.32		
RQDLEDRYAEHVAATQALPQDSGT [C22orf31]			5.4 ± 0.17	5.46 ± 0.3
DATWAAVAACTKEIDTQGRHLAHS [C10orf62]			4.04 ± 0.24	4.09 ± 0.39
LGAGSDLKDFTLNETVNSIFAQGA [ADAMTSL2]			3.12 ± 0.2	3.28 ± 0.35
ELNNCISMLVAGNDRVQTIITQLE [TRIM63]			2.25 ± 0.39	2.38 ± 0.11
LGTAIFIEADRRRAQLHVQGLLHE [SPNS1]			2.46 ± 0.36	2.17 ± 0.31
GRLSMAAADIVNFLTVGSVLQMWH [ZBTB22]			3.33 ± 0.17	3.4 ± 0.48
VLVLCVFNSILPGVLILFLTFFAF [SOAT1]			3.37 ± 0.25	3.17 ± 0.22
AWEDSHGSQDGHFVLSCSYDGLDC [SCNN1D]			3.73 ± 0.17	3.59 ± 0.19
VSSLSEVEEVDMAEEFEQPTLSCE [ELOA2]			5.57 ± 0.27	5.52 ± 0.17
VLLLGSVDGRHLLRTLSRAKFWPR [DNAAF3]			2.08 ± 0.36	2.27 ± 0.15
PAMVRISKPKTFQAYLDDCHRRYS [YPEL3]			2.96 ± 0.11	2.92 ± 0.17
EPYGHLNPKWTKWLQKLCCPCCFG [PI4K2A]			3.33 ± 0.33	3.37 ± 0.21
CINRFQQVESRWGYSGTSDRIRFT [BTBD1]			1.8 ± 0.12	2.07 ± 0.31
PSAAGAPASAPGEPRQRRLLLLDL [ANKRD9]			2.86 ± 0.29	3.11 ± 0.4
RAGGPPRPMSEPGAGAGSSLLDVA [SMAD6]			4.39 ± 0.39	4.37 ± 0.39
FAGSMFGSVALGPVCPTVCPPGGI [KRT71]			2.73 ± 0.61	2.36 ± 0.57
VHRQLSHLYAEPQKSPWCEARSLE [ESR2]			2.92 ± 0.28	3.2 ± 0.24
PYMNPSPFTVSPNTHVSQVFNLFR [CLCN6]			2.64 ± 0.16	2.73 ± 0.2
KCKQVKEKCKEEFVEEIKKLATQH [ZMYND11]			4.12 ± 0.15	4.14 ± 0.23
SPKYKQDVEGAESQLDEDEHGLHT [TRAF3IP2]			5.45 ± 0.14	5.5 ± 0.27
CPVVRNGSVAVVEAECEKSSATTY [SLC6A17]			4.64 ± 0.44	4.82 ± 0.17
VGPWLGQLQELLHHCDDHLSLYQL [RSAD1]			2.25 ± 0.45	2.6 ± 0.55

Sequence	protein stability index [1]	protein stability index [2]	protein stability index [3]	protein stability index [4]
RFVFADRERKKLVLENLEDSCVLT [TRIB3]			3.18 ± 0.16	3.37 ± 0.17
TFSGDVQLAQDDIDGIQAIYGRSQ [MMP1]			4.27 ± 0.21	4.55 ± 0.14
TKQNFFSQTPILQALQHVQASCDE [INTS3]			3.95 ± 0.12	4.16 ± 0.23
HGHLILHSMHKYQPRIHLVRAAQL [TBX6]			2.1 ± 0.29	2.07 ± 0.27
FTTNKCKGFGFVTMTNYDEAAMAI [ELAVL3]			2.49 ± 0.65	2.51 ± 0.14
WVCQRSTVASMMHRQETVECLKKF [CAMK2B]			2.73 ± 0.51	2.9 ± 0.52
NGCEVKNRKSILSRHLNSQVKKTT [PHTF1]			3.95 ± 0.24	4 ± 0.37
KRFTDAGFEHYDLFFIDGSTPSDN [CDC14A]			3.45 ± 0.16	3.45 ± 0.084
EEYCHKHYDRNKDGNKDVYLSLLR [VPS39]			3.23 ± 0.35	3.19 ± 0.27
DCEVFRQRFRQFQYREAAGPHEAF [ZNF449]			2.94 ± 0.29	2.93 ± 0.28
SEASKAFQMEKIEHGYENMNHFTV [TRIM55]			3.29 ± 0.21	3.38 ± 0.28
RLSGAGPAEEAGPEGGLEEPDALD [FOXJ1]			5.51 ± 0.31	5.59 ± 0.2
LFPPKAKSNQPKSLEDLIFESLPE [ATE1]			3 ± 0.055	3.66 ± 0.59
KKNNIKLYVRRVFIMDSCDELIPE [HSP90AB1]				2.06 ± 0.65
AALLILFAASLLTVFAWLLQYARG [C2CD2L]			2.74 ± 0.46	3.15 ± 0.46
PEPLFLGEEDFSLSATIGSILREL [SERTAD3]			2.6 ± 0.12	2.57 ± 0.31
KEQDGREVDWEYFYGLLFTSENLK [DFFB]			2.617 ± 0.019	2.93 ± 0.01
PQEEIATKKLRLTKPSKSAALHID [INTS4]			4.36 ± 0.047	4.46 ± 0.1
RWKRRRSYSREHEGRLRYPSRREP [CLK3]			3.86 ± 0.39	4.14 ± 0.36
MKSAMRKLWSKKVSLAGKWLYHS [OR4A15]	2.47 ± 1.1	2.59 ± 0.44		
WFHAKSAELNKEVSTNTAMIQTSK [KRT13]			4.09 ± 0.24	4.11 ± 0.11
MSRVHGMHPKETTRQLSLAVKDGL [ZMYND11]			3.83 ± 0.22	3.89 ± 0.4
HHFNSSHLEIDDMYTPAYGDFDFD [MYORG]			4.34 ± 0.11	4.23 ± 0.24

Sequence	protein stability index [1]	protein stability index [2]	protein stability index [3]	protein stability index [4]
TEQLWRIFAGVHDEKAKPRDRQQA [TLE6]			3.45 ± 0.26	3.76 ± 0.23
YDASAIDFSRCDMDGATLCNCALE [ELF3]			3.99 ± 0.32	4.02 ± 0.33
IDVEALQVAFGSLYRDDVLIKPSR [GMCL1]			2.37 ± 0.16	2.48 ± 0.37
MAMYWGTSRWSSMEIMEAYSVARQ [KCNAB2]			2.43 ± 0.52	2.06 ± 0.43
TLTSVQLLDCFGIPVLMALSWFIL [SLC35F2]			3.03 ± 0.35	2.65 ± 0.58
RFSRQCVVDKDKRNQCRYCRLKKC [HNF4A]			3.22 ± 0.46	3.5 ± 0.61
SQCQMETKPLAIHPCGDKNCPAHW [ADAMTSL2]			3.91 ± 0.62	4.53 ± 0.31
TWAMRQRGTHAVVGVATADAPLHS [SPSB1]			2.72 ± 0.34	2.87 ± 0.23
EHFGIVPLEAMYMQCPVIAVNSGG [ALG2]			2.33 ± 0.11	2.59 ± 0.37
STRLTRIHLREDLVQDQDLEAIRK [ZER1]			4.67 ± 0.079	4.7 ± 0.14
PGPERLFDSHRLPGDCFLLLVLLL [AUP1]			2.46 ± 0.54	2.14 ± 0.59
SRSRSRSRSNSRSRSYSPRRSRGS [SRSF1]			5.37 ± 0.24	5.6 ± 0.2
PETQARLEALLEAAGIGKLSTADG [ANKRD17]			2.95 ± 0.32	3.18 ± 0.42
TIIASNAEEAEILHSACGLSKDHQ [TOR1AIP2]			4.48 ± 0.14	4.54 ± 0.24
LRAESDFEQLPDDVAISANIADIE [NCF4]			4.66 ± 0.28	5.21 ± 0.19
QEELNRKAEELDRRERELQHAALG [SCAMP3]			5.39 ± 0.21	5.24 ± 0.55
STNEITYGLPIMVTLMVAKWTGDF [CLCN6]			3.16 ± 0.38	3.03 ± 0.45
KVPAPKDVLAHQVPNAKKLRRKEQ [NOP53]			4.76 ± 0.26	4.99 ± 0.17
DISLGQKEDGEPSWREAKVSWFGS [PWWP2B]			3.15 ± 0.14	3.39 ± 0.14
LQQDFQNIQETHRLYRLKLEELTK [TMEM120A]			3.3 ± 0.38	3.37 ± 0.28
VCGGAQRPGHLPGLLLGSHGLLGS [CDC25B]			1.9 ± 0.96	3.24 ± 1.6
AFPSGHLLDAHILEWHDSLFQILS [ZNF511]			2.35 ± 0.33	2.29 ± 0.3
YQARKPLWFYNTSLKFFLNKPMLA [RHOBTB3]			2.67 ± 0.57	1.97 ± 0.19

Sequence	protein stability index [1]	protein stability index [2]	protein stability index [3]	protein stability index [4]
RGLLEYFKAYIKIYQGEDLPHPKS [ATL3]			3.18 ± 0.84	2.56 ± 0.88
NIKPRRYLTVVFEHDAWFIFFMAA [SLC29A1]			3.1 ± 0.48	2.48 ± 0.61
NGTEDLPYAMKPIDYYTETKILQE [NSDHL]			4.28 ± 0.17	4.22 ± 0.051
ALSPSATAKRINRTSLSSGATVRS [CDC14A]			4.1 ± 0.11	4.16 ± 0.11
EFCRNTLCAPEVISLINTRMLFWA [FAF2]			2.74 ± 0.45	2.73 ± 0.32
IKPSENHYSLLTSQPLDREATSHY [PCDHGC5]			3.87 ± 0.062	3.93 ± 0.38
VNDLAVGLRRLGLHRTEGELQKIV [SLC25A25]			3.03 ± 0.074	3.02 ± 0.28
AWKELDRNYLNYGEEGAPGKWQQQ [CHGB]			3.47 ± 0.43	3.75 ± 0.67
TGILIFAIGVGQVDFNTLKSIGSE [MATN2]			3.69 ± 0.069	3 ± 0.56
RNNANGVDLNRNFPDLNTYIYYNE [CPN1]			3.17 ± 0.26	3.14 ± 0.28
VTSDVNKLSSFYSLKLIKRLYVDK [SERPINB5]			2.18 ± 0.18	2.29 ± 0.18
KCQVGFSSSDLVMRARDSVYHIEC [ISL2]			1.99 ± 0.36	2.3 ± 0.31
FLSGMEAAPRTLAAHPPLPLLPPA [TBX6]			2.95 ± 0.41	3.15 ± 0.26
GGGGSRSISASSARFVSSGSGGGY [KRT15]			4.23 ± 0.29	4.13 ± 0.3
FQILLLSDPSTIEASNFQMDRKTR [PNLIPRP1]			2.03 ± 0.43	2.42 ± 0.28
KSIDDTSNFDDFPESDILQPVPNT [STK38L]			5.25 ± 0.24	5.27 ± 0.077
EQQQILIRQLQEQHYQQYMQQLYQ [ACBD3]			2.2 ± 0.38	2.24 ± 0.3
VALLRAHAGEHLLLGATKRSMVFK [HNF4A]			2.27 ± 0.45	2.48 ± 0.096
AMREAIQSYPSQDKPLPPPPPGSL [SOAT2]			4.23 ± 0.12	4.04 ± 0.35
SSVICNDITAYLFGFFFGRTPLIK [CDS1]			2.13 ± 1.2	2.02 ± 0.082
